US20230174644A1

Molecular target: Recombinant nucleolin fused with a polyhistidine (His)6 tag, made in Pichia GS115 (human) (UniProt P19338)
Assay: SPR (BIAcore 2000), ES amine-coupled on a CM5 chip, NL 62.5-500 nM in flow, 25° C., 1:1 Langmuir model

UniProt P19338, sequence (P19338 other isoform, or with tags, fused parts or gaps limits assumed): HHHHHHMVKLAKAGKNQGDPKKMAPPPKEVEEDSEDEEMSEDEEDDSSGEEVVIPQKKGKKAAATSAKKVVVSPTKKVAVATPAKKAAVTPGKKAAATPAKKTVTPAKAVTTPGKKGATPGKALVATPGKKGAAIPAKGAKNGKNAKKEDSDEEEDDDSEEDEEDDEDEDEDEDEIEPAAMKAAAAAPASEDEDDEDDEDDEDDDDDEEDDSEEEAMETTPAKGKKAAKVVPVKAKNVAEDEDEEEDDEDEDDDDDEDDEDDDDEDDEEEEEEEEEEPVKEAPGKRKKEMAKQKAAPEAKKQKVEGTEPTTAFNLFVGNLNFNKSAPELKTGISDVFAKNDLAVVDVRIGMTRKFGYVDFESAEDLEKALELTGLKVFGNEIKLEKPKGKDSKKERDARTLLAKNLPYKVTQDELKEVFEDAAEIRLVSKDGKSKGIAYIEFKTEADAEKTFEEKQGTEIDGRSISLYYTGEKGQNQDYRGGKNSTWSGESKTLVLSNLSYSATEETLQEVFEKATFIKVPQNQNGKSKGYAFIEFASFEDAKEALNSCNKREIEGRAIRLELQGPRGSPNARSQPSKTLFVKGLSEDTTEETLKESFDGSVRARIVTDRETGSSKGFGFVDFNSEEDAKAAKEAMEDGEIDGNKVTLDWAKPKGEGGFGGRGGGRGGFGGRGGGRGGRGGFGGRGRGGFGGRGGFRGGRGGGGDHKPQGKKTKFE

Kd: 23.2 nM
Substance: Endostatin (recombinant, with N-terminal His-tag) (from UniProt P39060 1572-1754) (ligand)
